Publication PMC10397247

Experiments:
P8 = molecular target: T1, P8; test: two-hybrid library CC1; settings: mean of both orientations;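 also: natural log of median RNA to DNA barcode read ratio; higher means stronger binding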
T1 chain: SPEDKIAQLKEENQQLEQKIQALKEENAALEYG

P7 = molecular target: T2, P7; test: two-hybrid library CC1; settings: mean of both orientations;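 also: natural log of median RNA to DNA barcode read ratio; higher means stronger binding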
T2 chain: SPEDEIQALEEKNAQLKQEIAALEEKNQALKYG

P5 = molecular target: T3, P5; test: two-hybrid library CC1;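 also: natural log of median RNA to DNA barcode read ratio; higher means stronger binding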
T3 chain: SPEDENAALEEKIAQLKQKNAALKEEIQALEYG

P6 = molecular target: T4, P6; test: two-hybrid library CC1; settings: mean of both orientations;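 also: natural log of median RNA to DNA barcode read ratio; higher means stronger binding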
T4 chain: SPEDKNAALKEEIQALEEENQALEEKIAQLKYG

P5mS = molecular target: T5, P5mS; test: two-hybrid library CC1; settings: mean of both orientations;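 also: natural log of median RNA to DNA barcode read ratio; higher means stronger binding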
T5 chain: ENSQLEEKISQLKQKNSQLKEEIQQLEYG

P6SC2 = molecular target: T6, P6SC2; test: two-hybrid library CC1; settings: mean of both orientations;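 also: natural log of median RNA to DNA barcode read ratio; higher means stronger binding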
T6 chain: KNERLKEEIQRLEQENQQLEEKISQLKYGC

P5SC1 = molecular target: T7, P5SC1; test: two-hybrid library CC1; settings: mean of both orientations
T7 chain: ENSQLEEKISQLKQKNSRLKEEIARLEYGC

P8mS = molecular target: T8, P8mS; test: two-hybrid library CC1; settings: mean of both orientations
T8 chain: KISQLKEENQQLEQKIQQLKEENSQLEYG

P7mS = molecular target: T9, P7mS; test: two-hybrid library CC1; settings: mean of both orientations
T9 chain: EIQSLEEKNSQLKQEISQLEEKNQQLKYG

P6mS = molecular target: T10, P6mS; test: two-hybrid library CC1; settings: mean of both orientations
T10 chain: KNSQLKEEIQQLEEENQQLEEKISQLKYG

P6SC1 = molecular target: T11, P6SC1; test: two-hybrid library CC1; settings: mean of both orientations
T11 chain: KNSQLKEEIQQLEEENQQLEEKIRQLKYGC

P5SC2 = molecular target: T12, P5SC2; test: two-hybrid library CC1; settings: mean of both orientations
T12 chain: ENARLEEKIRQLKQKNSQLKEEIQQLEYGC

P9 = molecular target: T13, P9; test: two-hybrid library CC1; settings: mean of both orientations
T13 chain: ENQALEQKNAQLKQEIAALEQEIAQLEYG

4H491-bN = molecular target: T14, 4H491-bN; test: two-hybrid library CCNG1
T14 chain: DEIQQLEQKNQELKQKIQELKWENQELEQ

P4bH1 = molecular target: T15, P4bH1; test: two-hybrid library CCNG1
T15 chain: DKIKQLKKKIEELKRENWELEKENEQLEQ

P7A-bH = molecular target: T16, P7A-bH; test: two-hybrid library CCNG1
T16 chain: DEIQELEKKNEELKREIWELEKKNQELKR

P9A-bH = molecular target: T17, P9A-bH; test: two-hybrid library CCNG1
T17 chain: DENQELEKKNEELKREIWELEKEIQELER

P6A-bH = molecular target: T18, P6A-bH; test: two-hybrid library CCNG1
T18 chain: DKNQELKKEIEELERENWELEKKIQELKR

P8A-bH = molecular target: T19, P8A-bH; test: two-hybrid library CCNG1
T19 chain: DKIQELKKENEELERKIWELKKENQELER

P4A-bH = molecular target: T20, P4A-bH; test: two-hybrid library CCNG1
T20 chain: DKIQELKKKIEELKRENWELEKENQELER

P5A-bH = molecular target: T21, P5A-bH; test: two-hybrid library CCNG1
T21 chain: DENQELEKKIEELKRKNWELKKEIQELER

4H2903-AA = molecular target: T22, 4H2903-AA; test: two-hybrid library CCmax; settings: mean of both orientations
T22 chain: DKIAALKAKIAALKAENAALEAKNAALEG

4H380-AA = molecular target: T23, 4H380-AA; test: two-hybrid library CCmax; settings: mean of both orientations
T23 chain: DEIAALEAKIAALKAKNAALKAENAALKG

4H3969-AA = molecular target: T24, 4H3969-AA; test: two-hybrid library CCmax; settings: mean of both orientations
T24 chain: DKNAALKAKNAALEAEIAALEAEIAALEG

4H341-AA = molecular target: T25, 4H341-AA; test: two-hybrid library CCmax; settings: mean of both orientations
T25 chain: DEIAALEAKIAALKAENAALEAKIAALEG

4H2774-AA = molecular target: T26, 4H2774-AA; test: two-hybrid library CCmax; settings: mean of both orientations
T26 chain: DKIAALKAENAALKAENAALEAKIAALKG

4H2621-AA = molecular target: T27, 4H2621-AA; test: two-hybrid library CCmax; settings: mean of both orientations
T27 chain: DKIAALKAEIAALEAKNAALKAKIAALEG

4H464-AA = molecular target: T28, 4H464-AA; test: two-hybrid library CCmax; settings: mean of both orientations
T28 chain: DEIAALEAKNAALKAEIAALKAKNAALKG

4H1913-AA = molecular target: T29, 4H1913-AA; test: two-hybrid library CCmax
T29 chain: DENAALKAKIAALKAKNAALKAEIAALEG

4H2961-AA = molecular target: T30, 4H2961-AA; test: two-hybrid library CCmax; settings: mean of both orientations
T30 chain: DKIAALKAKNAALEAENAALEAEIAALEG

4H446-AA = molecular target: T31, 4H446-AA; test: two-hybrid library CCmax; settings: mean of both orientations
T31 chain: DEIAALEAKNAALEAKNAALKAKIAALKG

4H2580-AA = molecular target: T32, 4H2580-AA; test: two-hybrid library CCmax; settings: mean of both orientations
T32 chain: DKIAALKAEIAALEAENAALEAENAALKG

4H3049-AA = molecular target: T33, 4H3049-AA; test: two-hybrid library CCmax; settings: mean of both orientations
T33 chain: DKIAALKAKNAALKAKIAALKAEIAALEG

4H2699-AA = molecular target: T34, 4H2699-AA; test: two-hybrid library CCmax; settings: mean of both orientations
T34 chain: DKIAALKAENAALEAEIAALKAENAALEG

4H2728-AA = molecular target: T35, 4H2728-AA; test: two-hybrid library CCmax; settings: mean of both orientations
T35 chain: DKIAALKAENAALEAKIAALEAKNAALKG

4H63-AA = molecular target: T36, 4H63-AA; test: two-hybrid library CCmax
T36 chain: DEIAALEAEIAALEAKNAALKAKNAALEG

4H3939-AA = molecular target: T37, 4H3939-AA; test: two-hybrid library CCmax; settings: mean of both orientations
T37 chain: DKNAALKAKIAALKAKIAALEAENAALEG

4H3595-AA = molecular target: T38, 4H3595-AA; test: two-hybrid library CCmax; settings: mean of both orientations
T38 chain: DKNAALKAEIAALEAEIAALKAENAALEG

4H3414-AA = molecular target: T39, 4H3414-AA; test: two-hybrid library CCmax; settings: mean of both orientations
T39 chain: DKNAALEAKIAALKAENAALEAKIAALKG

4H3629-AA = molecular target: T40, 4H3629-AA; test: two-hybrid library CCmax; settings: mean of both orientations
T40 chain: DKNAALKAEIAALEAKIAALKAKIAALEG

4H3129-AA = molecular target: T41, 4H3129-AA; test: two-hybrid library CCmax
T41 chain: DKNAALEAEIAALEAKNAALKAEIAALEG

4H249-AA = molecular target: T42, 4H249-AA; test: two-hybrid library CCmax; settings: mean of both orientations
T42 chain: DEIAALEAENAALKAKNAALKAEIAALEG

4H3782-AA = molecular target: T43, 4H3782-AA; test: two-hybrid library CCmax; settings: mean of both orientations
T43 chain: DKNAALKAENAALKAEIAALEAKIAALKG

4H483-AA = molecular target: T44, 4H483-AA; test: two-hybrid library CCmax; settings: mean of both orientations
T44 chain: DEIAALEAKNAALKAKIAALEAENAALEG

Binder: SPEDENAALEEKIAQLKQKNAALKEEIQALEYG [P5]
- interaction score (P8): -1.39
- interaction score (P7): -2.59
- interaction score (P5): -2.89
- interaction score (P6): 0.207
- interaction score (P5mS): -2.94
- interaction score (P6SC2): 0.252
- interaction score (P5SC1): -2.93
- interaction score (P8mS): -2.62
- interaction score (P7mS): -2.8
- interaction score (P6mS): 0.1
- interaction score (P6SC1): 0.186
- interaction score (P5SC2): -2.84
- interaction score (P9): -2.12

Binder: DEIQQLEQKNQELKQKIQELKWENQELEQ [4H491-bN]
- interaction score (4H491-bN): -0.336
- interaction score (P4bH1): -0.336

Binder: DKIQELKKKIEELKRENWELEKENQELER [P4A-bH]
- interaction score (P7A-bH): -0.412
- interaction score (P9A-bH): -0.144
- interaction score (P6A-bH): -2.06
- interaction score (P8A-bH): 0.0606
- interaction score (P4A-bH): -1.38
- interaction score (P5A-bH): -0.285

Binder: DENAALKAKIAALKAKNAALKAEIAALEG [4H1913-AA]
- interaction score (4H2903-AA): -1.62
- interaction score (4H380-AA): -2.69
- interaction score (4H3969-AA): -0.832
- interaction score (4H341-AA): 0.862
- interaction score (4H2774-AA): -0.0687
- interaction score (4H2621-AA): -0.536
- interaction score (4H464-AA): -0.535
- interaction score (4H1913-AA): -1.12
- interaction score (4H2961-AA): -1.61
- interaction score (4H446-AA): -1.42
- interaction score (4H2580-AA): 0.453
- interaction score (4H3049-AA): -1.85
- interaction score (4H2699-AA): -0.293
- interaction score (4H2728-AA): 0.365
- interaction score (4H63-AA): -0.87
- interaction score (4H3939-AA): -1.9
- interaction score (4H3595-AA): -1.29
- interaction score (4H3414-AA): 1.8
- interaction score (4H3629-AA): -1.21
- interaction score (4H3129-AA): -0.895
- interaction score (4H249-AA): -1.83
- interaction score (4H3782-AA): -1.16
- interaction score (4H483-AA): -1.02
